Experimental data as given in US20030185819A1 (Biogen, published 2003).
Blank lines part the entries; values can stand above or below the binder they belong to.

Columns and labels:
[1] = biological target: T1, VLA-4 (integrin alpha4 beta1) on the human B cell line Ramos (human, UniProt P13612 34-1032; P05556 21-798); test: adhesion assay: inhibition of Ramos cell binding to immobilized rsVCAM1
T1 construct: whole, on cells; also called α4β1; VLA-4-expressing cells
Protocol: (§1) Recombinant soluble VCAM1 was prepared and purified essentially as described by Lobb et al., 1991a. Soluble VCAM is diluted to 10 μg/ml in 0.05 M NaHCO₃, (15 mM NaHCO₃, 35 mM Na₂CO₃) pH 9.2. Then 50 μl/well is added into a Linbro Titertek polystyrene 96 well plate, flat bottom, Flow Labs catalog #76-231-05. The plate is incubated at 4° C. overnight.
(§2) For antibody blocking studies, 100 μl/well of murine HP1/2 MAb (anti-VLA-4) typically at 10 μg/ml in RPMI, 2% FBS are added to the rsVCAM1 coated plates and incubated for 30 minutes at room temperature prior to cell binding as described above. MAb HP1/2 (anti-VLA-4) or any recombinant humanized anti-VLA-4 antibody prepared as described herein must be preincubated with labelled cells for 30 minutes at room temperature prior to the cell binding. Concentrations of the antibodies preincubated will vary, but generally concentrations were in the range of about 1 μg/ml.
(§3) The potency of recombinant Stage 0, Stage 1, Stage 2 and Stage 3 antibodies having the VK1 (DQL) light chain that had been purified from stably transfected YB2/0 cell lines was measured in the adhesion assay, as shown in Table III.

[2] = biological target: T1, VLA-4 (integrin alpha4 beta1) on the …; test: adhesion assay: inhibition of Ramos cell binding to immobilized rsVCAM1; molar value as printed
Protocol: as §1, §2
(§4) In these adhesion assays, murine HP1/2 inhibits Ramos cell binding completely at about 40 ng/ml, and half maximally at about 15 ng/ml ([…]). The results of adhesion assays as represented by the calculated half-maximal binding constants using humanized recombinant anti-VLA-4 antibodies made according to the present invention are shown in Table III. The number-(n) of experiments performed for each value is indicated for the recombinant humanized antibodies.

[3] = biological target: T1, VLA-4 (integrin alpha4 beta1) on the …; test: FACS, half-maximal binding to Ramos cells
Protocol: (§5) Briefly, 25 μl cells (4×10^6/ml in FACS buffer (PBS 2% FBS, 0.1% NaN₃) on ice are added to 5 μl of 5 μg/ml FITC or phycoerythrin (PE) conjugated antibody in FACS buffer, and incubated in V-bottomed microtiter wells on ice for 30 minutes. To the wells, 125 μl of FACS buffer is added, the plates are centrifuged at 350×g for 5 minutes, and the supernatant is shaken off. To each well is added 125 μl FACS buffer, then the cells are transferred to 12×75 mm Falcon polystyrene tubes and resuspended to a final volume of 250 μl in FACS buffer. The mixture is analyzed on a Becton Dickinson FACStar. The results of the FACS assays as represented by the calculated half-maximal binding […] Using humanized recombinant anti-VLA-4 antibodies made according to the present invention are shown in Table III and the number (n) of experiments performed for each value is indicated for the humanized antibodies. […] Murine HP1/2 binds half-maximally to Ramos cells at 15 ng/ml. The AS/SVMDY humanized antibody binds half-maximally to Ramos cells at 12 ng/ml. Thus, the two assays (i.e., adhesion and FACS assays) show an excellent correlation for the murine antibody and the humanized AS/SVMDY antibody.

[4] = biological target: T1, VLA-4 (integrin alpha4 beta1) on the …; test: potency assay of Example 7; which assay is not stated
[5] = biological target: T1, VLA-4 (integrin alpha4 beta1) on the …; test: adhesion assay: inhibition of Ramos cell binding to immobilized rsVCAM1 (n = 14)
Protocol: as §1, §2, §4

[6] = biological target: T1, VLA-4 (integrin alpha4 beta1) on the …; test: FACS, half-maximal binding to Ramos cells (n = 6)
Protocol: as §5

[7] = biological target: T1, VLA-4 (integrin alpha4 beta1) on the …; test: adhesion assay: inhibition of Ramos cell binding to immobilized rsVCAM1 (n = 4)
Protocol: as §1, §2, §3

[8] = biological target: T1, VLA-4 (integrin alpha4 beta1) on the …; test: FACS, half-maximal binding to Ramos cells (n = 3)
Protocol: as §5

[9] = biological target: T1, VLA-4 (integrin alpha4 beta1) on the …; test: adhesion assay: inhibition of Ramos cell binding to immobilized rsVCAM1 (n = 3)
Protocol: as §1, §2, §3

[10] = biological target: T1, VLA-4 (integrin alpha4 beta1) on the …; test: adhesion assay: inhibition of Ramos cell binding to immobilized rsVCAM1 (n = 2)
Protocol: as §1, §2

[11] = biological target: T1, VLA-4 (integrin alpha4 beta1) on the …; test: FACS, half-maximal binding to Ramos cells (n = 2)
Protocol: as §5

[12] = biological target: T1, VLA-4 (integrin alpha4 beta1) on the …; test: FACS, half-maximal binding to Ramos cells (n = 1)
Protocol: as §5

[13] = biological target: T1, VLA-4 (integrin alpha4 beta1) on the …; test: combination of adhesion and FACS assays (n = 3)
Protocol: as §1, §2
as §5, with “Thus, the two assays (i.e., adhesion and FACS assays) show an excellent correlation for the murine antibody and the humanized AS/SVMDY antibody.” left out

T1 sequence (P13612 34-1032, chain 1 of 2): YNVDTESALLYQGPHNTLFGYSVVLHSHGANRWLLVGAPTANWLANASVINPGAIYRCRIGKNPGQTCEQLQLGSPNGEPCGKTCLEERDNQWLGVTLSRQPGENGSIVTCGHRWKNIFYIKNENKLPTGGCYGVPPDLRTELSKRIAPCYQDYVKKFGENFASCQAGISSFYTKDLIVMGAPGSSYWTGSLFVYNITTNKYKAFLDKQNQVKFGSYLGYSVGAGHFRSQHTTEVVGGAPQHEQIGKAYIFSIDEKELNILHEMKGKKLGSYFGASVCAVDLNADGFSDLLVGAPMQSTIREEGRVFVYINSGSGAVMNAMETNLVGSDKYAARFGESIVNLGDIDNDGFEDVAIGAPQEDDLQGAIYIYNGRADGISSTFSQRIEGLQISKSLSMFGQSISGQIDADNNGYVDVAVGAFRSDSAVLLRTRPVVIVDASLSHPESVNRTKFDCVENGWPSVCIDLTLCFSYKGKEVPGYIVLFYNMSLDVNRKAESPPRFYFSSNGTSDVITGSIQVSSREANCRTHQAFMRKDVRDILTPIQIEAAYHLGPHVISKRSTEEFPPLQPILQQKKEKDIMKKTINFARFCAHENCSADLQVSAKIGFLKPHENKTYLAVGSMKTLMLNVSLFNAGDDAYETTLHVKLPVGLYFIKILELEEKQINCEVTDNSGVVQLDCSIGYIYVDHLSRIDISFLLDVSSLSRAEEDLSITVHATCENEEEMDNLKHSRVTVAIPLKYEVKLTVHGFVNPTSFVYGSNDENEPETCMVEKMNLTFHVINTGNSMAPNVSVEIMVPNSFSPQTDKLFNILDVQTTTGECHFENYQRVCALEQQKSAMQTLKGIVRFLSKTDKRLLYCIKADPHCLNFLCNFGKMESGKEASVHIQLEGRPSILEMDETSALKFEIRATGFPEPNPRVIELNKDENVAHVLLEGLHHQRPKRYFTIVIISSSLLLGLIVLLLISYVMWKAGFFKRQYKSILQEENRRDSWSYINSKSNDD
T1 sequence (P05556 21-798, chain 2 of 2): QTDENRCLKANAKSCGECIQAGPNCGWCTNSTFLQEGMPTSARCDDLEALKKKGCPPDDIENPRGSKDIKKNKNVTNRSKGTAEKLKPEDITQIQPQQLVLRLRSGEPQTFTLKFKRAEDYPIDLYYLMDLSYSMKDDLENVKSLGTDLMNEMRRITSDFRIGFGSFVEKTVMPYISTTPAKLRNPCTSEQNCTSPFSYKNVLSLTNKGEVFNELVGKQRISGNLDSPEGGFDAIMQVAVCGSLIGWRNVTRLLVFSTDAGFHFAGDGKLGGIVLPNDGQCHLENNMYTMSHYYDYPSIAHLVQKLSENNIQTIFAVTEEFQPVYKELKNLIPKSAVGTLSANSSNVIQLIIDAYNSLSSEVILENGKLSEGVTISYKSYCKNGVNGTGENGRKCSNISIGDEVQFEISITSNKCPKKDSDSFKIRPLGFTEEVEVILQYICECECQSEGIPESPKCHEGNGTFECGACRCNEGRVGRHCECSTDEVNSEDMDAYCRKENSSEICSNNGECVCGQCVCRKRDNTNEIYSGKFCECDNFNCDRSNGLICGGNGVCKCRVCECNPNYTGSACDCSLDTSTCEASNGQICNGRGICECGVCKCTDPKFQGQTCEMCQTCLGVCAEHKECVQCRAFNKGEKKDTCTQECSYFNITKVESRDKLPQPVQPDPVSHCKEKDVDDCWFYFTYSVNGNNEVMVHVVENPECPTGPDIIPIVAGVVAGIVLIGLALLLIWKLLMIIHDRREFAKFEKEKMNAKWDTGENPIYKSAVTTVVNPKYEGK

B2: Stage 2 (Ser mutant) humanized anti-VLA-4 antibody with VK1 (DQL) light chain (antibody, V domains shown)
VH: QVQLQESGPGLVRPSQTLSLTCTVSGFNIKDTYMHWVRQPPGRGLEWIGRIDPASGDTKYDPKFQVRVTMLVDTSSNQFSLRLSSVTAADTAVYYCADGMWVSTGYALDFWGQGTTVTVSS
VL: DIQLTQSPSSLSASVGDRVTITCKASQSVTNDVAWYQQKPGKAPKLLIYYASNRYTGVPSRFSGSGSGTDFTFTISSLQPEDIATYYCQQDYSSPYTFGQGTKVEIKR
notes: Human IgG1 or IgG4 / kappa; also called Sage 2 (Ser mutant); S mutant
fold lower potency than murine HP1/2 [4]: ~4 fold
IC50 [5]: 0.056 µg/mL
EC50 [6]: 0.047 µg/mL

B4: Stage 0-B humanized anti-VLA-4 antibody with VK1 (DQL) light chain (antibody, V domains shown)
VH: QVQLQESGPGLVRPSQTLSLTCTVSGFTFSDTYMHWVRQPPGRGLEWIGRIDPASGDTKYDPKFQVRVTMLVDTSKNQFSLRLSSVTAADTAVYYCADGMWVSTGYALDFWGQGTTVTVSS
VL: DIQLTQSPSSLSASVGDRVTITCKASQSVTNDVAWYQQKPGKAPKLLIYYASNRYTGVPSRFSGSGSGTDFTFTISSLQPEDIATYYCQQDYSSPYTFGQGTKVEIK
notes: Human IgG1 or IgG4 heavy and human kappa constant regions; also called STAGE O-B; Stage 0 (Humanized heavy chain)
IC50 [1]: > 1 µg/mL

B5: STAW/SVMDY humanized anti-VLA-4 antibody (antibody, V domains shown)
VH: QVQLQESGPGLVRPSQTLSLTCTVSGFNIKDTYMHWVRQPPGRGLEWIGRIDPASGDTKYDPKFQVRVTMLVDTSSNTAWLRLSSVTAADTAVYYCADGMWVSTGYALDFWGQGTTVTVSS
VL: SIVMTQSPSSLSASVGDRVTITCKASQSVTNDVAWYQQKPGKAPKLLIYYASNRYTGVPDRFSGSGYGTDFTFTISSLQPEDIATYYCQQDYSSPYTFGQGTKVEIKR
notes: Human IgG1 or IgG4 / kappa; also called STAW with VK2 (SVMDY) light chain
IC50 [7]: 0.025 µg/mL
EC50 [8]: 0.035 µg/mL

B6: Stage 0-C humanized anti-VLA-4 antibody with VK1 (DQL) light chain (antibody, V domains shown)
VH: QVQLQESGPGLVRPSQTLSLTCTVSGFTFSDTYMHWVRQPPGRGLEWIGRIDPASGDTKYDPKFQVRVTMLVDTSKNQFSLRLSSVTAADTAVYYCARGMWVSTGYALDFWGQGTTVTVSS
VL: DIQLTQSPSSLSASVGDRVTITCKASQSVTNDVAWYQQKPGKAPKLLIYYASNRYTGVPSRFSGSGSGTDFTFTISSLQPEDIATYYCQQDYSSPYTFGQGTKVEIK
notes: Generated from Stage 0-A, which is Stage 1 with D94R; Kabat position 94 is linear position 98 of the humanized VH entries (CDR3 = 99-110); Human IgG1 or IgG4 / kappa; also called STAGE O-C; Stage 0 (Humanized heavy chain)
IC50 [1]: > 1 µg/mL

B8: Stage 3 AS humanized anti-VLA-4 antibody with VK1 (DQL) light chain (antibody, V domains shown)
VH: QVQLQESGPGLVRPSQTLSLTCTASGFNIKDTYMHWVRQPPGRGLEWIGRIDPASGDTKYDPKFQVRVTMLVDTSSNQFSLRLSSVTAADTAVYYCADGMWVSTGYALDFWGQGTTVTVSS
VL: DIQLTQSPSSLSASVGDRVTITCKASQSVTNDVAWYQQKPGKAPKLLIYYASNRYTGVPSRFSGSGSGTDFTFTISSLQPEDIATYYCQQDYSSPYTFGQGTKVEIKR
notes: Human IgG1 or IgG4 / kappa; also called VH-AS
IC50 [10]: 0.028 µg/mL
EC50 [11]: 0.014 µg/mL

B10: AS/SVMDY humanized anti-VLA-4 antibody (antibody, V domains shown)
VH: QVQLQESGPGLVRPSQTLSLTCTASGFNIKDTYMHWVRQPPGRGLEWIGRIDPASGDTKYDPKFQVRVTMLVDTSSNQFSLRLSSVTAADTAVYYCADGMWVSTGYALDFWGQGTTVTVSS
VL: SIVMTQSPSSLSASVGDRVTITCKASQSVTNDVAWYQQKPGKAPKLLIYYASNRYTGVPDRFSGSGYGTDFTFTISSLQPEDIATYYCQQDYSSPYTFGQGTKVEIKR
notes: Human IgG1 or IgG4 / kappa; also called AS mutant heavy chain combined with the improved light chain (SVMDY); antibody produced by ATCC CRL 11175
IC50 [10]: 0.012 µg/mL
EC50 [11]: 0.012 µg/mL

B11: Stage 3 KAITAS humanized anti-VLA-4 antibody with VK1 (DQL) light chain (antibody, V domains shown)
VH: QVQLQESGPGLVRPSQTLSLTCTVSGFNIKDTYMHWVRQPPGRGLEWIGRIDPASGDTKYDPKFQVKATITADTSSNQFSLRLSSVTAADTAVYYCADGMWVSTGYALDFWGQGTTVTVSS
VL: DIQLTQSPSSLSASVGDRVTITCKASQSVTNDVAWYQQKPGKAPKLLIYYASNRYTGVPSRFSGSGSGTDFTFTISSLQPEDIATYYCQQDYSSPYTFGQGTKVEIKR
notes: Human IgG1 or IgG4 / kappa; also called VH-KAITAS
EC50 [12]: 0.1 µg/mL
half-maximal binding constant (adhesion and FACS combined) [13]: 90 ng/mL
IC50 [10]: 0.085 µg/mL

B12: Stage 3 KRS humanized anti-VLA-4 antibody with VK1 (DQL) light chain (antibody, V domains shown)
VH: QVQLQESGPGLVRPSQTLSLTCTVSGFNIKDTYMHWVKQRPGRGLEWIGRIDPASGDTKYDPKFQVRVTMLVDTSSNQFSLRLSSVTAADTAVYYCADGMWVSTGYALDFWGQGTTVTVSS
VL: DIQLTQSPSSLSASVGDRVTITCKASQSVTNDVAWYQQKPGKAPKLLIYYASNRYTGVPSRFSGSGSGTDFTFTISSLQPEDIATYYCQQDYSSPYTFGQGTKVEIKR
notes: Human IgG1 or IgG4 / kappa; also called VH-KRS
EC50 [12]: 0.07 µg/mL
half-maximal binding constant (adhesion and FACS combined) [13]: 57 ng/mL
IC50 [10]: 0.05 µg/mL

More lines, now with the values ahead:

IC50 [1]: 0.015 µg/mL
IC50 [2]: ~10 µM
EC50 [3]: 0.015 µg/mL
B1: murine HP1/2 monoclonal antibody (antibody, mouse IgG1, V domains shown)
VH: VKLQQSGAELVKPGASVKLFCTASGFNIKDTYMHWVKQRPQQGLEWIGRIDPASGDTKYDPKFQVKATITADTSSNTAWLQLSSLTSEDTAVYYCADGMWVSTGYALDFWGQGTTVTVSS
VL: SIVMTQTPKFLLVSAGDRVTITCKASQSVTNDVAWYQQKPGQSPKLLIYYASNRYTGVPDRFTGSGYGTDFTFTISTVQAEDLAVYFCQQDYSSPYTFGGGTKLEI
notes: The first eight residues of VH and the first four of VK in the listing are dictated by the PCR primers; also called MAb HP1/2 (anti-VLA-4); HP1/2 MAb

fold lower potency than murine HP1/2 [4]: ~2.5 fold
B3: humanized heavy chain of the Stage 2 construct (the Ser mutant) with murine light chain (antibody, V domains shown)
VH: QVQLQESGPGLVRPSQTLSLTCTVSGFNIKDTYMHWVRQPPGRGLEWIGRIDPASGDTKYDPKFQVRVTMLVDTSSNQFSLRLSSVTAADTAVYYCADGMWVSTGYALDFWGQGTTVTVSS
VL: SIVMTQTPKFLLVSAGDRVTITCKASQSVTNDVAWYQQKPGQSPKLLIYYASNRYTGVPDRFTGSGYGTDFTFTISTVQAEDLAVYFCQQDYSSPYTFGGGTKLEI
notes: also called Stage 2 heavy chain / murine light chain

IC50 [9]: 0.03 µg/mL
EC50 [8]: 0.033 µg/mL
B7: Stage 3 STAW humanized anti-VLA-4 antibody with VK1 (DQL) light chain (antibody, V domains shown)
VH: QVQLQESGPGLVRPSQTLSLTCTVSGFNIKDTYMHWVRQPPGRGLEWIGRIDPASGDTKYDPKFQVRVTMLVDTSSNTAWLRLSSVTAADTAVYYCADGMWVSTGYALDFWGQGTTVTVSS
VL: DIQLTQSPSSLSASVGDRVTITCKASQSVTNDVAWYQQKPGKAPKLLIYYASNRYTGVPSRFSGSGSGTDFTFTISSLQPEDIATYYCQQDYSSPYTFGQGTKVEIKR
notes: Human IgG1 or IgG4 / kappa; also called VH-STAW

EC50 [12]: 0.04 µg/mL
half-maximal binding constant (adhesion and FACS combined) [13]: 80 ng/mL
IC50 [10]: 0.1 µg/mL
B9: Stage 3 SSE humanized anti-VLA-4 antibody with VK1 (DQL) light chain (antibody, V domains shown)
VH: QVQLQESGPGLVRPSQTLSLTCTVSGFNIKDTYMHWVRQPPGRGLEWIGRIDPASGDTKYDPKFQVRVTMLVDTSSNQFSLRLSSVTSEDTAVYYCADGMWVSTGYALDFWGQGTTVTVSS
VL: DIQLTQSPSSLSASVGDRVTITCKASQSVTNDVAWYQQKPGKAPKLLIYYASNRYTGVPSRFSGSGSGTDFTFTISSLQPEDIATYYCQQDYSSPYTFGQGTKVEIKR
notes: Human IgG1 or IgG4 / kappa; also called VH-SSE
